{
  "source": "the nanobody polyreactivity screen of Harvey et al. (2022)",
  "data": [
    {"assay": "yeast display, Sf9 membrane polyspecificity reagent, FACS + sequencing; frameworks hold sequencing errors", "how_it_was_run": "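Genes from sorted yeast were amplified by colony PCR, read by MiSeq 2 × 250 sequencing and filtered on CDR length. These cells carried a synthetic nanobody library in Saccharomyces cerevisiae BJ5465 and were sorted by FACS into low and high (top ~1%) gates on anti-HA and streptavidin fluorescence. Polyreactivity is labelled according to the gate of origin.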", "values": [
      {"sequence": "QVQLVESGGGLVQAGCSLRLSCAASGRIFSYNAMGWYRPAPAKERELVAAISSDGSTYYADSVKGRFTISRDNAKNTVYLQMNSLKPEDTAVYYCAAYPRVNGNILSTGDYWGQGTQVTVSS", "polyreactivity (PSR sort gate)": "low polyreactivity"},
      {"sequence": "QVQLVESGGGLVQAGCSLRLSCAASGRIFTSYAMGWYRQAPGKERELVAAISRSGARTYYADTVKGRFTISRDNAKNTVYLQMNSLKPEDTAVYDCAAVTVAGYDYWGQGTQVTVSS", "polyreactivity (PSR sort gate)": "high polyreactivity"},
      {"sequence": "QVQLVESGGGLVQAGCSLRLSCAASGRIFVEYAMGWYRQAPGKVTELVAAINSGGSTNYADSVKGRFTISRDNAKNTVYLQMNSLKPEDTAVYYCNIDTLVYGYVQDYEYWGQGSQVTVSS", "polyreactivity (PSR sort gate)": "low polyreactivity"},
      {"sequence": "QVQLVESGGGLVQAGCSLRLSCAASGRILFGYAMGWYRQAPGKERELVADITSTGSTNYADSVKGRFTISRDNAKNTVYLQMNSLKPEDTAVYYCNARRESYYQRYRVDYWGQGTQVTVSS", "polyreactivity (PSR sort gate)": "low polyreactivity"},
      {"sequence": "QVQLVESGGGLVQAGCSLRLSCAASGRNFVHYAMGWYRQAPGKERDLVAAISWSGGNTYYADSVKGRFTISRDNAKNTVYLQMNSLKPEDTAVYYCARAPYYVASGHRRVLRPTYEYWGQGTQVTVSS", "polyreactivity (PSR sort gate)": "low polyreactivity"},
      {"sequence": "QVQLVESGGGLVQAGCSLRLSCAASGRTFARYVMGWYRQAPGKEREFVATISTSGTSTYYADSVKGRFTISRDNAKNTVYLQMNSLKPAETAVYYCAARRTTRGYDYWGQGTQVTVSS", "polyreactivity (PSR sort gate)": "high polyreactivity"},
      {"sequence": "QVQLVESGGGLVQAGCSLRLSCAASGRTFITNAMGWYRQAPGKVRELVAAISSGTGGRTYYADSVKGRFTISRDKAKNTVYFQMNSRKPEDTAVYYCAARSTKYYPYGYWGQGTQVTVTS", "polyreactivity (PSR sort gate)": "high polyreactivity"},
      {"sequence": "QVQLVESGGGLVQAGCSLRLSCAASGRTFPPYAMGWYRQAPRKERELVAAISRRAGTTYYADSVKGRFTISRDNAKNTVYLQMNSLKPEDTAVYYCAALSESSSYGYWGQGTQVTVSS", "polyreactivity (PSR sort gate)": "low polyreactivity"},
      {"sequence": "QVQLVESGGGLVQAGCSLRLSCAASGRTFVQYFMGWYRQAPGKERELVAAITSSGGSTYADSVKGRFTISRDNAKNTVFLHMNSLKPEDTAVYYCAADYLDGVGDVEHDYWGQGTQVTVSS", "polyreactivity (PSR sort gate)": "low polyreactivity"},
      {"sequence": "QVQLVESGGGLVQAGCSLRLSCAASGRTFYRYTMGWYRQAPGKERELVAAISISGGSTYYSDSVKGRFTISRDNEKNTFYLQMNSLKPEDSAVYYCAATSWGTYYRRLYYWGQATQVTVSS", "polyreactivity (PSR sort gate)": "high polyreactivity"},
      {"sequence": "QVQLVESGGGLVQAGCSLRLSCAASGRTFYYAMGWYRQAPGKERYADSVKGRFTISRDNAKNTVYLQMNSLKPEDTAVYYCAAKVPEPTSLDQSDYWGQGTQVTVSS", "polyreactivity (PSR sort gate)": "low polyreactivity"},
      {"sequence": "QVQLVESGGGLVQAGCSLRLSCAASGSIFAVYAMGWYRQATGKERELVAAISWSVGSTYYADSVKGRFTISRDHAKNTVYFQMNSLKPEDTAVYYCAAELAYYLDYVEYFTEIDLEGYWGQGTQVTVSS", "polyreactivity (PSR sort gate)": "low polyreactivity"},
      {"sequence": "QVQLVESGGGLVQAGCSLRLSCAASGSIFESYAMGWSRQAPGNERELVAAITSSGDSTYYADSVKGRFTITRDNAKNTVYIQMNSLKPEDTAVYYCANRVPTYISTADWGSRYDYWGQGTQVTVSS", "polyreactivity (PSR sort gate)": "low polyreactivity"},
      {"sequence": "QVQLVESGGGLVQAGCSLRLSCAASGSIFPFNAMGWYRQAPGKERELVAAITRSGGSTYYADSVKGRFTISRDNAKNTVYLQMNSLKPEDTAVYYCATDPEWPLPAYYYWGQGTQVTVSS", "polyreactivity (PSR sort gate)": "low polyreactivity"},
      {"sequence": "QVQLVESGGGLVQAGCSLRLSCAASGSIRGYAMGWSRQAPGKERELVASITWSGGSTYYADSVKGRFTMSRDNAKYTVYLQMHSLNPEDTAVYYCAASPSPYASVIRPYDYWGQGTQVTVSS", "polyreactivity (PSR sort gate)": "low polyreactivity"},
      {"sequence": "QVQLVESGGGLVQAGCSLRLSCAASGSTFFYYAMGWYRQSPGKERELVARISGGGSTNYADSVKGRFTISRDNAKNTVYLQMNSLKPEDTAVYYCAADRYDYYRYSYGRYGYWGQGTQVTVSS", "polyreactivity (PSR sort gate)": "high polyreactivity"},
      {"sequence": "QVQLVESGGGLVQAGCSLRLSCAASGSTFRYYAMGWYRQAPGKERELVAAINRSGGSTYYADSVKGRFTISRDNAKNTVYLQMYSLKPEDTAVYYCAAPWARHYSNPDDYWGQGTQVTVSS", "polyreactivity (PSR sort gate)": "high polyreactivity"},
      {"sequence": "QVQLVESGGGLVQAGCSLRLSCASSGSIFGRYAMGWYRQAPGKERELVAAISRGGSTNYADSVKGRFTISRDNAKNTVYLQLNSLKPEDTAVYYCNRKPYYVSSTRYDYWGQGSQVTVSS", "polyreactivity (PSR sort gate)": "high polyreactivity"},
      {"sequence": "QVQLVESGGGLVQAGCSLRLSCGASGSTFIHYAMGWYRQAPGTERELVAAITWDGSSTYYADSVKGRFTISLDNAKNTVYLQMNSLKPEDTAVYDCATDYAGQYPVDGQAIHDYWGQGTQVTVSS", "polyreactivity (PSR sort gate)": "low polyreactivity"},
      {"sequence": "QVQLVESGGGLVQAGCSLRLSSAASGIIFSHNAMGWYRQAPGKERELVDDIDWSGGSTYYADSVKGRFTISRDNAKNTVYLQMNSLKPEDTAVYYCAAEYRDYVPVNDTGDYWGQGTQVTVSS", "polyreactivity (PSR sort gate)": "low polyreactivity"},
      {"sequence": "QVQLVESGGGLVQAGCSLRLSWAASGRIFRPNSMGWYRQAPGKERELVAAITSNGGRTYYADSVKGRFTISRDNAKNTVYLQMNSLKPEDTAVYYCAKRVWYYSHKYDYWGQGTQVTVSS", "polyreactivity (PSR sort gate)": "high polyreactivity"}
    ]}
  ]
}
